From publication PMC2768541 (Journal of molecular biology, 2009)
Each block holds one molecule with its values, some of them ahead of it.

Columns and labels:
S100A1 = target: T1, S100A1 (Rattus norvegicus, UniProt P35467); conditions: read-out: KD of S100A1 for RyRP12; ref [36]; [47]; cited from earlier work
T1 sequence (P35467 2-94 limits assumed): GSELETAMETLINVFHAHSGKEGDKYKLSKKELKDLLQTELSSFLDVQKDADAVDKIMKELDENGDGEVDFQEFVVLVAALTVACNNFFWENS

RyRP12 RyRP12 = RyRP12 RyRP12 (UniProt P21817); conditions: cited from earlier work
[1] = target: TRTK12 (CapZ peptide) TRTK12 (Homo sapiens) (UniProt P52907); conditions: cited from earlier work
[2] = target: T2, TRTK12 (CapZ alpha subunit peptide) (not fully specified)
T2 chain: Ac-TRTKIDWNKILS-NH2

[3] = target: T3, TAMRA-TRTK12 (CapZ alpha subunit peptide) (not fully specified); test: fluorescence anisotropy
T3 chain: {TAMRA}-TRTKIDWNKILS-NH2

Molecule: KKAVWHKLLSKQ [RyRP12]
Kd (S100A1): 8 µM

Molecule: S100A1 (from UniProt P35467)
Kd (RyRP12 RyRP12): 8 µM

Molecule: S100B (from UniProt P04631)
Kd [1]: 7 µM

Kd [2]: 23 µM
Kd [3]: 1 µM
B1: S100A1 (protein)
chain: MGSELETAMETLINVFHAHSGKEGDKYKLSKKELKDLLQTELSSFLDVQKDADAVDKIMKELDENGDGEVDFQEFVVLVAALTVACNNFFWENS
